Experimental data taken from US20250011363A1, “OPTIMIZED SHORTENED PEPTIDE THAT BINDS TO ACETYLCHOLINE RECEPTOR, AND USE THEREOF” (SKINMED CO., LTD., priority 2021, published 2025).

target: acetylcholine receptor; experiment: SPR, receptor on CM5 chip, peptide 10 µM

| Binder | Binding affinity (RU) |
| --- | --- |
| RRQVYR [6mer-1-132] | 153 |
| KKLIYR [6mer-1-469] | 139 |
| RRQITK [6mer-1-114] | 153 |
| RRSLTR [6mer-1-479] | 135 |
| KRQVRK [6mer-1-486] | 151 |
| RKGRRK [6mer-1-487] | 121 |
| KRGIQR [6mer-1-131] | 142 |
| KRLFTR [6mer-1-117] | 142 |
| KRRRQK [6mer-1-476] | 154 |
| RKVICR [6mer-1-111] | 144 |
| KKWRCK [6mer-1-471] | 123 |
| KKSIYR [6mer-1-134] | 128 |
| RKLQTK [6mer-1-475] | 148 |
| RKVRCK [6mer-1-116] | 139 |
| KRLFSK [6mer-1-474] | 121 |
| RKQFYR [6mer-1-128] | 126 |
| RKVRYK [6mer-1-478] | 139 |
| KKVLSK [6mer-1-473] | 154 |
| RRRQSK [6mer-1-129] | 121 |
| KRGVQK [6mer-1-113] | 148 |
| KRWRCK [6mer-1-481] | 133 |
| KKWVCR [6mer-1-112] | 148 |
| KKWVYR [6mer-1-470] | 148 |

| Binder | Binding affinity (RU) |
| --- | --- |
| KRLQTR [6mer-1-119] | 133 |
| RRWYRR [6mer-1-485] | 126 |
| RRGVQK [6mer-1-123] | 148 |
| RKQVRK [6mer-1-482] | 133 |
| KKLIRK [6mer-1-122] | 139 |
| RRRYSR [6mer-1-120] | 124 |
| KKLYLR [6mer-1-484] | 154 |
| RKRFLR [6mer-1-133] | 154 |
| KKWIQR [6mer-1-126] | 148 |
| KRQVSR [6mer-1-135] | 123 |
| RRLYRR [6mer-1-468] | 153 |
| RRSLSR [6mer-1-115] | 133 |
| KRVIYR [6mer-1-127] | 147 |
| RKLQLR [6mer-1-118] | 127 |
| KRQVTK [6mer-1-483] | 151 |
| KRRYTK [6mer-1-121] | 148 |
| KRRLCR [6mer-1-125] | 135 |
| RKQVLR [6mer-1-130] | 142 |
| KRVQQK [6mer-1-124] | 137 |
| KRQQTK [6mer-1-477] | 145 |
| KKQFYK [6mer-1-480] | 121 |
| KRQRCK [6mer-1-472] | 142 |

More lines, now with the values ahead:

| Binding affinity (RU) | Binder |
| --- | --- |
| 136 | RKVYRR [6mer-1-511] |
| 122 | RRSITR [6mer-1-504] |
| 139 | RKRQQK [6mer-1-498] |
| 139 | RRGLSR [6mer-1-515] |
| 128 | KKLFSR [6mer-1-494] |
| 154 | RKWICK [6mer-1-512] |
| 147 | KRRQCK [6mer-1-519] |
| 128 | KKGRSK [6mer-1-514] |
| 149 | RKLFYR [6mer-1-499] |
| 137 | RKLRLR [6mer-1-491] |
| 135 | RRQFSK [6mer-1-508] |
| 128 | RKWLRK [6mer-1-509] |
| 133 | KRRQLR [6mer-1-497] |
| 148 | RRRFTR [6mer-1-505] |
| 153 | KRWVLK [6mer-1-518] |
| 139 | RRWRQK [6mer-1-492] |
| 133 | KKLFRR [6mer-1-490] |

| Binding affinity (RU) | Binder |
| --- | --- |
| 139 | KKGLCK [6mer-1-517] |
| 131 | KRGYLR [6mer-1-493] |
| 122 | KRRQSR [6mer-1-510] |
| 126 | RKGFQR [6mer-1-495] |
| 154 | KRVLYK [6mer-1-501] |
| 127 | KRQIYK [6mer-1-520] |
| 146 | RKLFSR [6mer-1-502] |
| 154 | RKQIRR [6mer-1-513] |
| 151 | KRRLCK [6mer-1-503] |
| 151 | RRRLSK [6mer-1-506] |
| 139 | RRSQSK [6mer-1-507] |
| 139 | KKRFSR [6mer-1-516] |
| 148 | RRVYQR [6mer-1-496] |
| 148 | KKVITK [6mer-1-489] |
| 128 | RKVISR [6mer-1-521] |
| 135 | KKWYSK [6mer-1-488] |
| 151 | RKLQSK [6mer-1-500] |
